Molecular target: Aβ(1-40) peptide, monomeric (UniProt P05067 672-711)
Experiment: SPR

B1: anticalin H1GA (Aβ-anticalin) (designed binder)
chain: QDSTSDLIPAPPLSKVPLQQNFQDNQFHGKWYVVGAAGNVLLREDKDPLKMYATIYELKEDKSYNVTSVGFDDKKCLYKIRTFVPGSQPGEFTLGRIKSEPGGTSWLVRVVSTNYNQHAMVFFKEVAQNRETFNITLYGRTKELTSELKENFIRFSKSLGLPENHIVFPVPIDQCIDG
- Kd: 0.54 nM

— publication PMC11237084 (2024)
